The values that follow come from PMC6805484, “The RNA-binding ubiquitin ligase MKRN1 functions in ribosome-associated quality control of poly(A) translation”.

The series concerns the target His-MKRN1 wt;His-PABPC1 (human (Homo sapiens);human (Homo …, UniProt Q9UHC7;P11940 1-482;1-636, |)). Nature of the series: pull-down; PABPC1 strongly increases MKRN1 recovery; Binding: 50 mM Tris-HCl pH 7.4, 500 mM KCl, 12.5 mM MgCl2, 1% Triton X-100, 1 h, 4 °C; wash: 200 mM NaCl, 10 mM MgCl2, 50 mM HEPES pH 7.4, 0.5% Igepal CA630, 1% Triton X-100. To be noted: protein: recombinant;recombinant; tags: N-His6;N-His6; copies: 1;1; label: 3' biotin.

Chain of His-MKRN1 wt;His-PABPC1 (human (Homo sapiens);human (Q9UHC7 whole entry, chain 1 of 2): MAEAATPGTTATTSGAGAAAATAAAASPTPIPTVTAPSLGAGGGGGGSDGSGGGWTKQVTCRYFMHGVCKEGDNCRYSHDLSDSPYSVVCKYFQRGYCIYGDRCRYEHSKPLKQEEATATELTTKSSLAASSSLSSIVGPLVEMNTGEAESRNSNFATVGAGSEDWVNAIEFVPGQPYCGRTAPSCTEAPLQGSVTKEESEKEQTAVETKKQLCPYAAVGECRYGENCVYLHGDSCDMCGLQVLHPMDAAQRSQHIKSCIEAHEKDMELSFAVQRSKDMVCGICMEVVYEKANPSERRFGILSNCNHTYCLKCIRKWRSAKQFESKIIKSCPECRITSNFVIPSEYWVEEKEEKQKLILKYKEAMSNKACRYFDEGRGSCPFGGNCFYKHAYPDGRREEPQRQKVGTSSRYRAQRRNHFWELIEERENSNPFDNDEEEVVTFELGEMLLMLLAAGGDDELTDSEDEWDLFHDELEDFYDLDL
Chain of His-MKRN1 wt;His-PABPC1 (human (Homo sapiens);human (P11940 whole entry, chain 2 of 2): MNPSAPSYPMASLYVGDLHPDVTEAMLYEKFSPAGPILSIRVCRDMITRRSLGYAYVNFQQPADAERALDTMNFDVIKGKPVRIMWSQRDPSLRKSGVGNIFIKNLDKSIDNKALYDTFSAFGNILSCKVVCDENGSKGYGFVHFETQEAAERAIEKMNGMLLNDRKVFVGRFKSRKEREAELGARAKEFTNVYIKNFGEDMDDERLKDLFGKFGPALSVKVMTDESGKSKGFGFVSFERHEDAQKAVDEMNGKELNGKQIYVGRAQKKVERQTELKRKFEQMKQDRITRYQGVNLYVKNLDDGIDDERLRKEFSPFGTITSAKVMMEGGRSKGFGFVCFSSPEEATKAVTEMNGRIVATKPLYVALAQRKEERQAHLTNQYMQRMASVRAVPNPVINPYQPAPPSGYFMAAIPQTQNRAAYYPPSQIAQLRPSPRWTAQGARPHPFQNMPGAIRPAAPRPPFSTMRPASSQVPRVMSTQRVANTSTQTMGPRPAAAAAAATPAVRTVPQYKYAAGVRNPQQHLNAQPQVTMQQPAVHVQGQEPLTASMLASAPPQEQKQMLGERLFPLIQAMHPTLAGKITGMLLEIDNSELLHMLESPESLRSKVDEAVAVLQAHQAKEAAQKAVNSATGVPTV

Consider GGAAAUAAACUGUAGAGUUCCAAAAAAAAAAAAAAAAAAAAA (ssRNA) [A20 RNA (SRSF4 3' UTR end + A20)], for which the binding result is listed as “binds”.
